Experimental data: patent US12006519B2, “Polymerase mutants and use with 3′-OH unblocked reversible terminators” (Agilent Technologies, Inc., priority 2021, dated 2024)

B1: K476W: Therminator with mutation K476W (9° N DNA pol numbering) (protein, UniProt Q56366 1-775, looked up, variant D141A E143A A485L K476W)
DNA polymerase: MILDTDYITENGKPVIRVFKKENGEFKIEYDRTFEPYFYALLKDDSAIEDVKKVTAKRHGTVVKVKRAEKVQKKFLGRPIEVWKLYFNHPQDVPAIRDRIRAHPAVVDIYEYDIPFAKRYLIDKGLIPMEGDEELTMLAFAIATLYHEGEEFGTGPILMISYADGSEARVITWKKIDLPYVDVVSTEKEMIKRFLRVVREKDPDVLITYNGDNFDFAYLKKRCEELGIKFTLGRDGSEPKIQRMGDRFAVEVKGRIHFDLYPVIRRTINLPTYTLEAVYEAVFGKPKEKVYAEEIAQAWESGEGLERVARYSMEDAKVTYELGREFFPMEAQLSRLIGQSLWDVSRSSTGNLVEWFLLRKAYKRNELAPNKPDERELARRRGGYAGGYVKEPERGLWDNIVYLDFRSLYPSIIITHNVSPDTLNREGCKEYDVAPEVGHKFCKDFPGFIPSLLGDLLEERQKIKRKMKATVDPLEWKLLDYRQRLIKILANSFYGYYGYAKARWYCKECAESVTAWGREYIEMVIRELEEKFGFKVLYADTDGLHATIPGADAETVKKKAKEFLKYINPKLPGLLELEYEGFYVRGFFVTKKKYAVIDEEGKITTRGLEIVRRDWSEIAKETQARVLEAILKHGDVEEAVRIVKEVTEKLSKYEVPPEKLVIHEQITRDLRDYKATGPHVAVAKRLAARGVKIRPGTVISYIVLKGSGRIGDRAIPADEFDPTKHRYDAEYYIENQVLPAVERILKAFGYRKEDLRYQKTKQVGLGAWLKVKGKK
modifications: Therminator
B2: A639F: Therminator with mutation A639F (9° N DNA pol numbering) (protein, UniProt Q56366 1-775, looked up, variant D141A E143A A485L A639F)
DNA polymerase: MILDTDYITENGKPVIRVFKKENGEFKIEYDRTFEPYFYALLKDDSAIEDVKKVTAKRHGTVVKVKRAEKVQKKFLGRPIEVWKLYFNHPQDVPAIRDRIRAHPAVVDIYEYDIPFAKRYLIDKGLIPMEGDEELTMLAFAIATLYHEGEEFGTGPILMISYADGSEARVITWKKIDLPYVDVVSTEKEMIKRFLRVVREKDPDVLITYNGDNFDFAYLKKRCEELGIKFTLGRDGSEPKIQRMGDRFAVEVKGRIHFDLYPVIRRTINLPTYTLEAVYEAVFGKPKEKVYAEEIAQAWESGEGLERVARYSMEDAKVTYELGREFFPMEAQLSRLIGQSLWDVSRSSTGNLVEWFLLRKAYKRNELAPNKPDERELARRRGGYAGGYVKEPERGLWDNIVYLDFRSLYPSIIITHNVSPDTLNREGCKEYDVAPEVGHKFCKDFPGFIPSLLGDLLEERQKIKRKMKATVDPLEKKLLDYRQRLIKILANSFYGYYGYAKARWYCKECAESVTAWGREYIEMVIRELEEKFGFKVLYADTDGLHATIPGADAETVKKKAKEFLKYINPKLPGLLELEYEGFYVRGFFVTKKKYAVIDEEGKITTRGLEIVRRDWSEIAKETQARVLEAILKHGDVEEFVRIVKEVTEKLSKYEVPPEKLVIHEQITRDLRDYKATGPHVAVAKRLAARGVKIRPGTVISYIVLKGSGRIGDRAIPADEFDPTKHRYDAEYYIENQVLPAVERILKAFGYRKEDLRYQKTKQVGLGAWLKVKGKK
modifications: Therminator
B3: L478S: Therminator with mutation L478S (9° N DNA pol numbering) (protein, UniProt Q56366 1-775, looked up, variant D141A E143A A485L L478S)
DNA polymerase: MILDTDYITENGKPVIRVFKKENGEFKIEYDRTFEPYFYALLKDDSAIEDVKKVTAKRHGTVVKVKRAEKVQKKFLGRPIEVWKLYFNHPQDVPAIRDRIRAHPAVVDIYEYDIPFAKRYLIDKGLIPMEGDEELTMLAFAIATLYHEGEEFGTGPILMISYADGSEARVITWKKIDLPYVDVVSTEKEMIKRFLRVVREKDPDVLITYNGDNFDFAYLKKRCEELGIKFTLGRDGSEPKIQRMGDRFAVEVKGRIHFDLYPVIRRTINLPTYTLEAVYEAVFGKPKEKVYAEEIAQAWESGEGLERVARYSMEDAKVTYELGREFFPMEAQLSRLIGQSLWDVSRSSTGNLVEWFLLRKAYKRNELAPNKPDERELARRRGGYAGGYVKEPERGLWDNIVYLDFRSLYPSIIITHNVSPDTLNREGCKEYDVAPEVGHKFCKDFPGFIPSLLGDLLEERQKIKRKMKATVDPLEKKSLDYRQRLIKILANSFYGYYGYAKARWYCKECAESVTAWGREYIEMVIRELEEKFGFKVLYADTDGLHATIPGADAETVKKKAKEFLKYINPKLPGLLELEYEGFYVRGFFVTKKKYAVIDEEGKITTRGLEIVRRDWSEIAKETQARVLEAILKHGDVEEAVRIVKEVTEKLSKYEVPPEKLVIHEQITRDLRDYKATGPHVAVAKRLAARGVKIRPGTVISYIVLKGSGRIGDRAIPADEFDPTKHRYDAEYYIENQVLPAVERILKAFGYRKEDLRYQKTKQVGLGAWLKVKGKK
modifications: Therminator
B4: D718N: Therminator with mutation D718N (9° N DNA pol numbering) (protein, UniProt Q56366 1-775, looked up, variant D141A E143A A485L D718N)
DNA polymerase: MILDTDYITENGKPVIRVFKKENGEFKIEYDRTFEPYFYALLKDDSAIEDVKKVTAKRHGTVVKVKRAEKVQKKFLGRPIEVWKLYFNHPQDVPAIRDRIRAHPAVVDIYEYDIPFAKRYLIDKGLIPMEGDEELTMLAFAIATLYHEGEEFGTGPILMISYADGSEARVITWKKIDLPYVDVVSTEKEMIKRFLRVVREKDPDVLITYNGDNFDFAYLKKRCEELGIKFTLGRDGSEPKIQRMGDRFAVEVKGRIHFDLYPVIRRTINLPTYTLEAVYEAVFGKPKEKVYAEEIAQAWESGEGLERVARYSMEDAKVTYELGREFFPMEAQLSRLIGQSLWDVSRSSTGNLVEWFLLRKAYKRNELAPNKPDERELARRRGGYAGGYVKEPERGLWDNIVYLDFRSLYPSIIITHNVSPDTLNREGCKEYDVAPEVGHKFCKDFPGFIPSLLGDLLEERQKIKRKMKATVDPLEKKLLDYRQRLIKILANSFYGYYGYAKARWYCKECAESVTAWGREYIEMVIRELEEKFGFKVLYADTDGLHATIPGADAETVKKKAKEFLKYINPKLPGLLELEYEGFYVRGFFVTKKKYAVIDEEGKITTRGLEIVRRDWSEIAKETQARVLEAILKHGDVEEAVRIVKEVTEKLSKYEVPPEKLVIHEQITRDLRDYKATGPHVAVAKRLAARGVKIRPGTVISYIVLKGSGRIGDRAIPANEFDPTKHRYDAEYYIENQVLPAVERILKAFGYRKEDLRYQKTKQVGLGAWLKVKGKK
B5: T590I: Therminator with mutation T590I (9° N DNA pol numbering) (protein, UniProt Q56366 1-775, looked up, variant D141A E143A A485L T590I)
DNA polymerase: MILDTDYITENGKPVIRVFKKENGEFKIEYDRTFEPYFYALLKDDSAIEDVKKVTAKRHGTVVKVKRAEKVQKKFLGRPIEVWKLYFNHPQDVPAIRDRIRAHPAVVDIYEYDIPFAKRYLIDKGLIPMEGDEELTMLAFAIATLYHEGEEFGTGPILMISYADGSEARVITWKKIDLPYVDVVSTEKEMIKRFLRVVREKDPDVLITYNGDNFDFAYLKKRCEELGIKFTLGRDGSEPKIQRMGDRFAVEVKGRIHFDLYPVIRRTINLPTYTLEAVYEAVFGKPKEKVYAEEIAQAWESGEGLERVARYSMEDAKVTYELGREFFPMEAQLSRLIGQSLWDVSRSSTGNLVEWFLLRKAYKRNELAPNKPDERELARRRGGYAGGYVKEPERGLWDNIVYLDFRSLYPSIIITHNVSPDTLNREGCKEYDVAPEVGHKFCKDFPGFIPSLLGDLLEERQKIKRKMKATVDPLEKKLLDYRQRLIKILANSFYGYYGYAKARWYCKECAESVTAWGREYIEMVIRELEEKFGFKVLYADTDGLHATIPGADAETVKKKAKEFLKYINPKLPGLLELEYEGFYVRGFFVIKKKYAVIDEEGKITTRGLEIVRRDWSEIAKETQARVLEAILKHGDVEEAVRIVKEVTEKLSKYEVPPEKLVIHEQITRDLRDYKATGPHVAVAKRLAARGVKIRPGTVISYIVLKGSGRIGDRAIPADEFDPTKHRYDAEYYIENQVLPAVERILKAFGYRKEDLRYQKTKQVGLGAWLKVKGKK
modifications: Therminator

test system: Lightning Terminators; test: Sequencing-by-synthesis with Lightning Terminators (87 cycles); format: biochemical; parameters: ARL (87 cycles) / Lead + Lag / Leading / Lagging: unit not given here; conditions: Therminator mutants, same unit concentrations (0.08 U/ul in cycle 1 and 0.008 U/ul in cycles 2-n)
Method: This section generally describes how the present mutant polymerases were used for sequencing-by-synthesis, and how their performance in sequencing was measured. Sequencing was performed on a breadboard instrument, essentially as described in Hertzog D, et al., “A high-performance, low-cost approach to next-generation sequencing”, BioOptics World. 2011 Issue November/December 2011.
In this example, mutations were introduced into the DNA polymerase of SEQ ID NO: 12 (Therminator) in an attempt to improve its capability in sequencing with 3′-OH unblocked terminators. Such mutations to Thermococcus sp. 9° N DNA polymerase are disclosed in U.S. Pat. Nos. 9,273,352; 9,677,059; 9,765,309; U.S. Pat. App. Publication No. 20160032377. The following table summarizes sequencing metrics with Lightning Terminators.
As used in this example and those that follow, “Lead+Lag” refers to dephasing errors in Sequencing by Synthesis technology caused by either reading the next base signal (Lead) or reading the previous base signal (Lag) relative to current base signals. Such errors may arise because of imperfect incoporation of reversible terminators by the polymerase.
In this example, mutant polymerases were created by introducing certain mutations (D141A/E143A/A485L) which are present in Therminator. The three mutations were introduced at the equivalent positions in JDF3 (Thermococcus sp. JDF3) and Pfu (Pyrococcus furisosus) DNA polymerases. The new mutant polymerases were then evaluated for their performance in sequencing with Lightning Terminators, as described above.

Molecule | % reads >85 bp [%] | ARL (87 cycles) | Lead + Lag
B1 | 31.8 | 70.2 | 1.4
B2 | 6.9 | 58.5 | 2.3
B3 | 19.6 | 65.8 | 1.6
B4 | 17.9 | 65.6 | 1.8
B5 | 32.2 | 68.1 | 1.3
